Results reported in patent US8785135B2, “Mutant G-protein coupled receptors and methods for selecting them” (Heptares Therapeutics Limited, priority 2007, dated 2014).
Positions count from the first letter of the chain named. Names may count otherwise.

B1: A203L: A2aR point mutant (protein, UniProt P29274 1-412, looked up, variant A203L)
Adenosine receptor A2a: MPIMGSSVYITVELAIAVLAILGNVLVCWAVWLNSNLQNVTNYFVVSLAAADIAVGVLAIPFAITISTGFCAACHGCLFIACFVLVLTQSSIFSLLAIAIDRYIAIRIPLRYNGLVTGTRAKGIIAICWVLSFAIGLTPMLGWNNCGQPKEGKNHSQGCGEGQVACLFEDVVPMNYMVYFNFFACVLVPLLLMLGVYLRIFLLARRQLKQMESQPLPGERARSTLQKEVHAAKSLAIIVGLFALCWLPLHIINCFTFFCPDCSHAPLWLMYLAIVLSHTNSVVNPFIYAYRIREFRQTFRKIIRSHVLRQQEPFKAAGTSARVLAAHGSDGEQVSLRLNGHPPGVWANGSAPHPERRPNGYALGLVSGGSAQESQGNTGLPDVELLSHELKGVCPEPPGLDDPLAQDGAGVS
B2: R220A: A2aR point mutant (protein, UniProt P29274 1-412, looked up, variant R220A)
Adenosine receptor A2a: B1 Adenosine receptor A2a with L203A, R220A
B3: L241A: A2aR point mutant (protein, UniProt P29274 1-412, looked up, variant L241A)
Adenosine receptor A2a: B1 Adenosine receptor A2a with L203A, L241A
B4: Q210A: A2aR point mutant (protein, UniProt P29274 1-412, looked up, variant Q210A)
Adenosine receptor A2a: B1 Adenosine receptor A2a with L203A, Q210A
B5: S263A: A2aR point mutant (protein, UniProt P29274 1-412, looked up, variant S263A)
Adenosine receptor A2a: B1 Adenosine receptor A2a with L203A, S263A
B6: H230A: A2aR point mutant (protein, UniProt P29274 1-412, looked up, variant H230A)
Adenosine receptor A2a: B1 Adenosine receptor A2a with L203A, H230A
B7: T224A: A2aR point mutant (protein, UniProt P29274 1-412, looked up, variant T224A)
Adenosine receptor A2a: B1 Adenosine receptor A2a with L203A, T224A
B8: P260A: A2aR point mutant (protein, UniProt P29274 1-412, looked up, variant P260A)
Adenosine receptor A2a: B1 Adenosine receptor A2a with L203A, P260A
B9: N284A: A2aR point mutant (protein, UniProt P29274 1-412, looked up, variant N284A)
Adenosine receptor A2a: B1 Adenosine receptor A2a with L203A, N284A
B10: E219A: A2aR point mutant (protein, UniProt P29274 1-412, looked up, variant E219A)
Adenosine receptor A2a: B1 Adenosine receptor A2a with L203A, E219A
B11: K227A: A2aR point mutant (protein, UniProt P29274 1-412, looked up, variant K227A)
Adenosine receptor A2a: B1 Adenosine receptor A2a with L203A, K227A
B12: L267A: A2aR point mutant (protein, UniProt P29274 1-412, looked up, variant L267A)
Adenosine receptor A2a: B1 Adenosine receptor A2a with L203A, L267A
B13: Q311A: A2aR point mutant (protein, UniProt P29274 1-412, looked up, variant Q311A)
Adenosine receptor A2a: B1 Adenosine receptor A2a with L203A, Q311A
B14: L272A: A2aR point mutant (protein, UniProt P29274 1-412, looked up, variant L272A)
Adenosine receptor A2a: B1 Adenosine receptor A2a with L203A, L272A
B15: P313A: A2aR point mutant (protein, UniProt P29274 1-412, looked up, variant P313A)
Adenosine receptor A2a: B1 Adenosine receptor A2a with L203A, P313A
B16: Q226A: A2aR point mutant (protein, UniProt P29274 1-412, looked up, variant Q226A)
Adenosine receptor A2a: B1 Adenosine receptor A2a with L203A, Q226A
B17: S223A: A2aR point mutant (protein, UniProt P29274 1-412, looked up, variant S223A)
Adenosine receptor A2a: B1 Adenosine receptor A2a with L203A, S223A
B18: L208A: A2aR point mutant (protein, UniProt P29274 1-412, looked up, variant L208A)
Adenosine receptor A2a: B1 Adenosine receptor A2a with L203A, L208A
B19: S213A: A2aR point mutant (protein, UniProt P29274 1-412, looked up, variant S213A)
Adenosine receptor A2a: B1 Adenosine receptor A2a with L203A, S213A
B20: G390A: NTR point mutant (protein, UniProt P20789 1-424, looked up, variant G390A)
Neurotensin receptor type 1: MHLNSSVPQGTPGEPDAQPFSGPQSEMEATFLALSLSNGSGNTSESDTAGPNSDLDVNTDIYSKVLVTAIYLALFVVGTVGNSVTAFTLARKKSLQSLQSTVHYHLGSLALSDLLILLLAMPVELYNFIWVHHPWAFGDAGCRGYYFLRDACTYATALNVASLSVERYLAICHPFKAKTLMSRSRTKKFISAIWLASALLAIPMLFTMGLQNRSGDGTHPGGLVCTPIVDTATVKVVIQVNTFMSFLFPMLVISILNTVIANKLTVMVHQAAEQGRVCTVGTHNGLEHSTFNMTIEPGRVQALRHGVLVLRAVVIAFVVCWLPYHVRRLMFCYISDEQWTTFLFDFYHYFYMLTNALFYVSSAINPILYNLVSANFRQVFLSTLACLCPAWRHRRKKRPTFSRKPNSMSSNHAFSTSATRETLY
B21: A385L: NTR point mutant (protein, UniProt P20789 1-424, looked up, variant A385L)
Neurotensin receptor type 1: B20 Neurotensin receptor type 1 with A385L, A390G
B22: A86L: NTR point mutant (protein, UniProt P20789 1-424, looked up, variant A86L)
Neurotensin receptor type 1: B20 Neurotensin receptor type 1 with A86L, A390G
B23: R395A: NTR point mutant (protein, UniProt P20789 1-424, looked up, variant R395A)
Neurotensin receptor type 1: B20 Neurotensin receptor type 1 with A390G, R395A
B24: Y349A: NTR point mutant (protein, UniProt P20789 1-424, looked up, variant Y349A)
Neurotensin receptor type 1: B20 Neurotensin receptor type 1 with Y349A, A390G
B25: D345A: NTR point mutant (protein, UniProt P20789 1-424, looked up, variant D345A)
Neurotensin receptor type 1: B20 Neurotensin receptor type 1 with D345A, A390G

Test: Thermostability of A2aR and mutants (ligand binding after or during heating)
Type: physicochemical
Details: Ligand(−) format, binding after the heating step
From the text: FIG. 12 Flow chart showing the two different assay formats of ligand (+) and ligand (−) used to determine receptor thermostability.
• 1. 315 site-directed mutants made between residues 2-316 of A2aR. • 2. All of these mutants have been assayed for thermostability using an assay measuring agonist and antagonist binding after the heating step (Ligand(−) format as described in FIG. 12). • a. […] Mutations have been combined to generate mutants in a putative antagonist conformation. Wildtype A2aR has a Tm of 31° C. with ZM241385 bound. • a. Rant17 A54L+K122A+L235A Tm 48° C. (ZM241385 bound) • b. Rant19 A54L, T88A, V239A+A204L Tm 47° C. (ZM241385 bound) • c. Rant21 A54L, T88A, V239A+K122A Tm 49° C. (ZM241385 bound) • 4. Mutations from the agonist screen have been combined, but have led to only a very low level of improvement in Tm of +2° C.

Q: With B1 as the molecule, how does the “thermostability assayed with 3H-ZM241385 (antagonist)” value read?
A: Its value is “improved thermostability”.

Q: And the “thermostability measured with 3H-NECA (agonist)” value (shortened to “thermostability measured”)?
A: The value was “improved thermostability”.

Q: Which “thermostability measured” value does the source give for B2 here?
A: Its value is “improved thermostability”.

Q: For B3, which “thermostability measured” value is on record?
A: The value was “improved thermostability”.

Q: For B4, which “thermostability measured” value is on record?
A: Its value is “improved thermostability”.

Q: Which “thermostability measured” value does the source give for B5 here?
A: The value was “improved thermostability”.

Q: For B6, which “thermostability measured” value is on record?
A: The value was “improved thermostability”.

Q: For B7, which “thermostability measured” value is on record?
A: Its value is “improved thermostability”.

Q: Which “thermostability measured” value does the source give for B8 here?
A: The value was “improved thermostability”.

Q: With B9 as the molecule, how does the “thermostability measured” value read?
A: The value was “improved thermostability”.

Q: With B10 as the molecule, how does the “thermostability measured” value read?
A: Its value is “improved thermostability”.

Q: For B11, which “thermostability measured” value is on record?
A: Its value is “improved thermostability”.

Q: With B12 as the molecule, how does the “thermostability measured” value read?
A: Its value is “improved thermostability”.

Q: Which “thermostability measured” value does the source give for B13 here?
A: Its value is “improved thermostability”.

Q: Which “thermostability measured” value does the source give for B14 here?
A: The value was “improved thermostability”.

Q: For B15, which “thermostability measured” value is on record?
A: Its value is “improved thermostability”.

Q: For B16, which “thermostability measured” value is on record?
A: The value was “improved thermostability”.

Q: Which “thermostability measured” value does the source give for B17 here?
A: The value was “improved thermostability”.

Q: Which “thermostability measured” value does the source give for B18 here?
A: Its value is “improved thermostability”.

Q: For B19, which “thermostability measured” value is on record?
A: Its value is “improved thermostability”.

Test: Thermostability of NTR and mutants (3H-neurotensin binding)
Type: physicochemical
Details: Ligand(+) format

Q: For B20, which “thermostability, heated in the presence of 3H-neurotensin” value (“thermostability, heated in the presence” below) is on record?
A: Its value is “improved thermostability”.

Q: For B21, which “thermostability, heated in the presence” value is on record?
A: Its value is “improved thermostability”.

Q: With B22 as the molecule, how does the “thermostability, heated in the presence” value read?
A: Its value is “improved thermostability”.

Q: With B23 as the molecule, how does the “thermostability, heated in the presence” value read?
A: Its value is “improved thermostability”.

Same assay, conditions: heated in the absence of the agonist

Q: Which “thermostability, 3H-neurotensin (agonist) binding after the heating step” value (“thermostability, 3H-neurotensin” below) does the source give for B21 here?
A: The value was “small but significant increase in thermostability”.

Q: Which “thermostability, 3H-neurotensin” value does the source give for B22 here?
A: Its value is “small but significant increase in thermostability”.

Q: With B24 as the molecule, how does the “thermostability, 3H-neurotensin” value read?
A: Its value is “small but significant increase in thermostability”.

Q: With B25 as the molecule, how does the “thermostability, 3H-neurotensin” value read?
A: Its value is “small but significant increase in thermostability”.
